Measured values from article PMC10707181, “Neuronal Scaffold Protein ARMS Interacts with Synaptotagmin-4 C2AB through the Ankyrin Repeat Domain with an Unexpected Mode” (International Journal of Molecular Sciences, 2023).

B1: ARMS ankyrin repeats 1–11 (R1-11, residues 1–365) [rat] / Syt4 132–425 [human] (parent complex)
chain 1: MSVLISQSVINYVEEENIPALKALLEKCKDVDERNECGQTPLMLAAEQGNVEIVKELLKNGANCNLEDLDNWTALISASKEGHIHIVEELLKSGASLEHRDMGGWTALMWACYKGRTDVVELLLSHGANPSVTGLYSVYPIIWAAGRGHADIVHLLLQNGAKVNCSDKYGTTPLVWAARKGHLECVKHLLAMGADVDQEGANSMTALIVAVKGGYTQSVKEILKRNPNVNLTDKDGNTALMIASKEGHIEIVQDLLDAGTYVNIPDRSGDTVLIGAVRGGHVEIVRALLQKYADIDIRGQDNKTALYWAVEKGNATMVRDILQCNPDTEICTKDGETPLIKATKMRNIEVVELLLDKGAKVSAVD
chain 2: ESVSPESLKSSTSLTSEEKQEKLGTLFFSLEYNFERKAFVVNIKEARGLPAMDEQSMTSDPYIKMTILPEKKHKVKTRVLRKTLDPAFDETFTFYGIPYTQIQELALHFTILSFDRFSRDDIIGEVLIPLSGIELSEGKMLMNREIIKRNVRKSSGRGELLISLCYQSTTNTLTVVVLKARHLPKSDVSGLSDPYVKVNLYHAKKRISKKKTHVKKCTPNAVFNELFVFDIPCEGLEDISVEFLVLDSERGSRNEVIGQLVLGAAAEGTGGEHWKEICDYPRRQIAKWHVLCDG

Variants of: B1
Experiment: ITC; parent: 1.2e+04 nM

Row | Variant | Kd
1 | chain 2 R152A | 4 µM
2 | chain 2 K148A, chain 2 R149A | 9 µM
3 | chain 2 R152A, chain 2 K153A | 4 µM
4 | chain 2 Q55A | 3 µM
5 | chain 2 K148A, chain 2 R149A, chain 2 R152A | 19 µM
6 | chain 2 K153A | 3 µM
7 | chain 2 R157A | 10 µM
